Reference: patent US20210087265A1 (PROGASTRINE ET CANCERS S R L, published 2021)

B1: mAb16 (antibody, V domains shown)
VH: QVQLQQSGAELVKPGASVKLSCKASGYTFTSYYMYWVKQRPGQGLEWIGEINPSNGGTNFNEKFKSKATLTVDKSSSTAYMQLSSLTSEDSAVYYCTRGGYYPFDYWGQGTTLTVSS
VL: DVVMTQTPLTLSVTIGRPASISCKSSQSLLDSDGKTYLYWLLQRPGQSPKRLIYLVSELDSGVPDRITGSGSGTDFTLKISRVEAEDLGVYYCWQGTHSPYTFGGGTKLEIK
notes: Murine monoclonal antibody from a hybridoma; also called hybridoma 1E9D9B6
B2: mAb4 (antibody, V domains shown)
VH: QVQLQQSGAELMKPGASVKISCKATGYTFSSSWIEWLKQRPGHGLEWIGEFLPGSGSTDYNEKFKGKATFTADTSSDTAYMLLSSLTSEDSAVYYCATDGNYDWFAYWGQGTLVTVSA
VL: DLVMTQTPLSLPVSLGDQASISCRSSQSLVHSSGVTYLHWYLQKPGQSPKLLIYKVSNRFSGVPDRFSGSGSGTDFTLKISRVEAEDLGVYFCSQSTHVPPTFGSGTKLEIK
notes: Murine monoclonal antibody from a hybridoma; also called hybridoma 20D2C3G2
B3: mAb19 (antibody, V domains shown)
VH: DVQLQESGPGLVKPSQSLSLTCTVTGYSITSDYAWNWIRQFPGNKLEWMGYISFSGYTSYNPSLKSRISVTRDTSRNQFFLQLTSVTTEDTATYYCAREVNYGDSYHFDYWGQGTIVTVSS
VL: QLALTQSSSASFSLGASAKLTCTLSSQHRTYTIEWYQQQSLKPPKYVMEVKKDGSHSTGHGIPDRFSGSSSGADRYLSISNIQPEDEAIYICGVGDAIKGQSVFVFGGGTKVTVL
notes: Murine monoclonal antibody from a hybridoma; also called hybridoma 1B3B4F11
B4: mAb13 (antibody, V domains shown)
VH: EVQLVESGGGLVQPGGSLKLSCAASGFIFSSYGMSWVRQSPDRRLELVASINTFGDRTYYPDSVKGRFTISRDNAKNTLYLQMTSLKSEDTAIYYCARGTGTYWGQGTTLTVSS
VL: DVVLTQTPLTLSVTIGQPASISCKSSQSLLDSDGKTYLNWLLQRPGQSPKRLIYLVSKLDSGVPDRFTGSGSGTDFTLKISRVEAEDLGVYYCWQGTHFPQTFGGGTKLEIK
notes: Murine monoclonal antibody from a hybridoma; also called hybridoma 2C6C3C7
B5: mAb3 (antibody, V domains shown)
VH: EVQLQQSGTVLARPGASVKMSCKASGYIFTSYWVHWVKQRPGQGLEWIGGFYPGNSDSRYNQKFKGKATLTAVTSASTAYMDLSSLTNEDSAVYFCTRRDSPQYWGQGTTLTVSS
VL: DVLMTQTPLSLPVSLGDQASISCRSSQSIVHSNGNTYLEWYLQKPGQSPKLLIYKVSNRFSGVPDRFSGSGSGTDFTLKISRLEAEDLGVYYCFQGSHVPFTFGGGTKLEIK
notes: Murine monoclonal antibody from a hybridoma; also called hybridoma 6B5B11C10

Molecular target: T1, human progastrin (human, UniProt P01350 22-101)
T1 construct: 80-residue progastrin, i.e. preprogastrin (AAB19304.1) without its 21-residue signal peptide; also called hPG; PG
T1 sequence: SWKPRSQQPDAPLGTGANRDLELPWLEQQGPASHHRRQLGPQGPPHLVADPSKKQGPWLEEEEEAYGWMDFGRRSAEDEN
Assay: epitope mapping (method not described)

| Binder | binding result |
| --- | --- |
| B1 | binds |
| B2 | binds |
| B3 | binds |
| B4 | binds |
| B5 | binds |
